Experimental data reported in the Human Domainome abundance scans (Beltran et al. 2025).
± gives the uncertainty stated by the source.

B1: 3'-5' exoribonuclease 1, residues 65 to 114; numbered along this chain, Q8IV48 (parent)
chain: VYKEIAITNGCINRMSKEELRAKLSEFKLETRGVKDVLKKRLKNYYKKQK

Variants of: B1
Assay: abundance fitness (aPCA) (normalised: wild type 0, dead -1); higher = more abundant; growth selection in yeast, the domain comes from the species named
Settings: Homo sapiens

**Q.** For VYKEIAITNGCINRMSREELRAKLSEFKLETRGVKDVLKKRLKNYYKKQK [K17R], which abundance fitness is on record?
**A.** -0.203 ± 0.07

**Q.** With VYKEIAITNGCINRMSKEELLAKLSEFKLETRGVKDVLKKRLKNYYKKQK [R21L] as the variant, how does the abundance fitness read?
**A.** -0.528 ± 0.039

**Q.** With VYKEIAITNGCINRMSKEELVAKLSEFKLETRGVKDVLKKRLKNYYKKQK [R21V] as the variant, how does the abundance fitness read?
**A.** -0.203 ± 0.038

**Q.** For VYKEIAITNGCINRMSKEELNAKLSEFKLETRGVKDVLKKRLKNYYKKQK [R21N], which abundance fitness is on record?
**A.** -0.787 ± 0.069

**Q.** For VYKEIAITNGCINRMSKEELWAKLSEFKLETRGVKDVLKKRLKNYYKKQK [R21W], which abundance fitness is on record?
**A.** -0.833 ± 0.051

**Q.** With VYKEIAITNGCINRMSKEELDAKLSEFKLETRGVKDVLKKRLKNYYKKQK [R21D] as the variant, how does the abundance fitness read?
**A.** -0.844 ± 0.073

**Q.** For VYKEIAITNGCINRMSKEELSAKLSEFKLETRGVKDVLKKRLKNYYKKQK [R21S], which abundance fitness is on record?
**A.** -0.518 ± 0.043

**Q.** For VYKEIAITNGCINRMSKEELMAKLSEFKLETRGVKDVLKKRLKNYYKKQK [R21M], which abundance fitness is on record?
**A.** -0.449 ± 0.053

**Q.** With VYKEIAITNGCINRMSKEELEAKLSEFKLETRGVKDVLKKRLKNYYKKQK [R21E] as the variant, how does the abundance fitness read?
**A.** -0.841 ± 0.058

**Q.** With VYKEIAITNGCINRMSKEELTAKLSEFKLETRGVKDVLKKRLKNYYKKQK [R21T] as the variant, how does the abundance fitness read?
**A.** -0.473 ± 0.051

**Q.** With VYKEIAITNGCINRMSKEELCAKLSEFKLETRGVKDVLKKRLKNYYKKQK [R21C] as the variant, how does the abundance fitness read?
**A.** -0.474 ± 0.049

**Q.** For VYKEIAITNGCINRMSKEELFAKLSEFKLETRGVKDVLKKRLKNYYKKQK [R21F], which abundance fitness is on record?
**A.** -0.688 ± 0.062

**Q.** With VYKEIAITNGCINRMSKEELGAKLSEFKLETRGVKDVLKKRLKNYYKKQK [R21G] as the variant, how does the abundance fitness read?
**A.** -0.804 ± 0.039

**Q.** With VYKEIAITNGCINRMSKEELQAKLSEFKLETRGVKDVLKKRLKNYYKKQK [R21Q] as the variant, how does the abundance fitness read?
**A.** -0.221 ± 0.052

**Q.** With VYKEIAITNGCINRMSKEELHAKLSEFKLETRGVKDVLKKRLKNYYKKQK [R21H] as the variant, how does the abundance fitness read?
**A.** -0.644 ± 0.075

**Q.** Which abundance fitness does the source give for VYKEIAITNGCINRMSKEELIAKLSEFKLETRGVKDVLKKRLKNYYKKQK [R21I] here?
**A.** -0.226 ± 0.073

**Q.** Which abundance fitness does the source give for VYKEIAITNGCINRMSKEELYAKLSEFKLETRGVKDVLKKRLKNYYKKQK [R21Y] here?
**A.** -0.773 ± 0.075

**Q.** With VYKEIAITNGCINRMSKEELPAKLSEFKLETRGVKDVLKKRLKNYYKKQK [R21P] as the variant, how does the abundance fitness read?
**A.** -0.697 ± 0.071

**Q.** For VYKEIAITNGCINRMSKEFLRAKLSEFKLETRGVKDVLKKRLKNYYKKQK [E19F], which abundance fitness is on record?
**A.** -0.784 ± 0.075

**Q.** For VYKEIAITNGCINRMSKEKLRAKLSEFKLETRGVKDVLKKRLKNYYKKQK [E19K], which abundance fitness is on record?
**A.** -0.324 ± 0.052

**Q.** Which abundance fitness does the source give for VYKEIAITNGCINRMSKENLRAKLSEFKLETRGVKDVLKKRLKNYYKKQK [E19N] here?
**A.** -0.299 ± 0.061

**Q.** With VYKEIAITNGCINRMSKEGLRAKLSEFKLETRGVKDVLKKRLKNYYKKQK [E19G] as the variant, how does the abundance fitness read?
**A.** -0.375 ± 0.04

**Q.** Which abundance fitness does the source give for VYKEIAITNGCINRMSKERLRAKLSEFKLETRGVKDVLKKRLKNYYKKQK [E19R] here?
**A.** -0.438 ± 0.042

**Q.** Which abundance fitness does the source give for VYKEIAITNGCINRMSKECLRAKLSEFKLETRGVKDVLKKRLKNYYKKQK [E19C] here?
**A.** -0.382 ± 0.053

**Q.** For VYKEIAITNGCINRMSKEDLRAKLSEFKLETRGVKDVLKKRLKNYYKKQK [E19D], which abundance fitness is on record?
**A.** -0.107 ± 0.058

**Q.** For VYKEIAITNGCINRMSKEQLRAKLSEFKLETRGVKDVLKKRLKNYYKKQK [E19Q], which abundance fitness is on record?
**A.** 0.007 ± 0.044

**Q.** With VYKEIAITNGCINRMSKEILRAKLSEFKLETRGVKDVLKKRLKNYYKKQK [E19I] as the variant, how does the abundance fitness read?
**A.** -0.699 ± 0.078

**Q.** With VYKEIAITNGCINRMSKEPLRAKLSEFKLETRGVKDVLKKRLKNYYKKQK [E19P] as the variant, how does the abundance fitness read?
**A.** -1.01 ± 0.081

**Q.** Which abundance fitness does the source give for VYKEIAITNGCINRMSKELLRAKLSEFKLETRGVKDVLKKRLKNYYKKQK [E19L] here?
**A.** -0.517 ± 0.041

**Q.** For VYKEIAITNGCINRMSKESLRAKLSEFKLETRGVKDVLKKRLKNYYKKQK [E19S], which abundance fitness is on record?
**A.** -0.26 ± 0.04

**Q.** For VYKEIAITNGCINRMSKEYLRAKLSEFKLETRGVKDVLKKRLKNYYKKQK [E19Y], which abundance fitness is on record?
**A.** -0.652 ± 0.056

**Q.** With VYKEIAITNGCINRMSKEALRAKLSEFKLETRGVKDVLKKRLKNYYKKQK [E19A] as the variant, how does the abundance fitness read?
**A.** -0.147 ± 0.047

**Q.** Which abundance fitness does the source give for VYKEIAITNGCINRMSKEVLRAKLSEFKLETRGVKDVLKKRLKNYYKKQK [E19V] here?
**A.** -0.379 ± 0.038

**Q.** With VYKEIAITNGCINRMSKEWLRAKLSEFKLETRGVKDVLKKRLKNYYKKQK [E19W] as the variant, how does the abundance fitness read?
**A.** -0.77 ± 0.061

**Q.** Which abundance fitness does the source give for VYKEIAITNGCINRMSKDELRAKLSEFKLETRGVKDVLKKRLKNYYKKQK [E18D] here?
**A.** -0.034 ± 0.047

**Q.** Which abundance fitness does the source give for VYKEIAITNGCINRMSKPELRAKLSEFKLETRGVKDVLKKRLKNYYKKQK [E18P] here?
**A.** -0.008 ± 0.045

**Q.** For VYKEIAITNGCINRMSKQELRAKLSEFKLETRGVKDVLKKRLKNYYKKQK [E18Q], which abundance fitness is on record?
**A.** 0.075 ± 0.064

**Q.** Which abundance fitness does the source give for VYKEIAITNGCINRMSKIELRAKLSEFKLETRGVKDVLKKRLKNYYKKQK [E18I] here?
**A.** -0.003 ± 0.062

**Q.** Which abundance fitness does the source give for VYKEIAITNGCINRMSKGELRAKLSEFKLETRGVKDVLKKRLKNYYKKQK [E18G] here?
**A.** -0.023 ± 0.035

**Q.** With VYKEIAITNGCINRMSKLELRAKLSEFKLETRGVKDVLKKRLKNYYKKQK [E18L] as the variant, how does the abundance fitness read?
**A.** -0.025 ± 0.039

**Q.** For VYKEIAITNGCINRMSKWELRAKLSEFKLETRGVKDVLKKRLKNYYKKQK [E18W], which abundance fitness is on record?
**A.** -0.131 ± 0.049

**Q.** With VYKEIAITNGCINRMSKHELRAKLSEFKLETRGVKDVLKKRLKNYYKKQK [E18H] as the variant, how does the abundance fitness read?
**A.** -0.043 ± 0.062

**Q.** With VYKEIAITNGCINRMSKKELRAKLSEFKLETRGVKDVLKKRLKNYYKKQK [E18K] as the variant, how does the abundance fitness read?
**A.** 0.058 ± 0.059

**Q.** For VYKEIAITNGCINRMSKNELRAKLSEFKLETRGVKDVLKKRLKNYYKKQK [E18N], which abundance fitness is on record?
**A.** 0.047 ± 0.06

**Q.** Which abundance fitness does the source give for VYKEIAITNGCINRMSKSELRAKLSEFKLETRGVKDVLKKRLKNYYKKQK [E18S] here?
**A.** 0.038 ± 0.039

**Q.** With VYKEIAITNGCINRMSKVELRAKLSEFKLETRGVKDVLKKRLKNYYKKQK [E18V] as the variant, how does the abundance fitness read?
**A.** 0.058 ± 0.037

**Q.** With VYKEIAITNGCINRMSKCELRAKLSEFKLETRGVKDVLKKRLKNYYKKQK [E18C] as the variant, how does the abundance fitness read?
**A.** 0.072 ± 0.047

**Q.** Which abundance fitness does the source give for VYKEIAITNGCINRMSKYELRAKLSEFKLETRGVKDVLKKRLKNYYKKQK [E18Y] here?
**A.** -0.179 ± 0.054

**Q.** For VYKEIAITNGCINRMSKMELRAKLSEFKLETRGVKDVLKKRLKNYYKKQK [E18M], which abundance fitness is on record?
**A.** 0.012 ± 0.055

**Q.** For VYKEIAITNGCINRMSKFELRAKLSEFKLETRGVKDVLKKRLKNYYKKQK [E18F], which abundance fitness is on record?
**A.** -0.007 ± 0.063

**Q.** For VYKEIAITNGCINRMSKAELRAKLSEFKLETRGVKDVLKKRLKNYYKKQK [E18A], which abundance fitness is on record?
**A.** 0.079 ± 0.039

**Q.** Which abundance fitness does the source give for VYKEIAITNGCINRMSKRELRAKLSEFKLETRGVKDVLKKRLKNYYKKQK [E18R] here?
**A.** 0.04 ± 0.037
